# From the Immune Epitope Database (IEDB)
# Tests used:
# [1] = target: HLA-B*46:01; assay: IEDB peptide-MHC binding, purified MHC/direct/fluorescence; filed as Kd, often an IC50 or EC50 that approximates it; ≥ and ≤ were set here for values at or beyond the usual limits of such assays
# [2] = target: HLA-B*15:02; assay: as above; conditions: source organism: Hantaan virus Q32
# [3] = target: HLA-B*15:01; assay: as above
# [4] = target: HLA-B*35:01; assay: as above
# [5] = target: HLA-B*07:02; assay: as above
# [6] = target: HLA-B*39:01; assay: as above
# [7] = target: HLA-A*02:19; assay: as above
# [8] = target: HLA-A*24:03; assay: as above
# [9] = target: HLA-B*27:03; assay: as above
# [10] = target: HLA-A*26:01; assay: as above
# [11] = target: HLA-A*69:01; assay: as above
# [12] = target: HLA-A*29:02; assay: as above
# [13] = target: HLA-A*03:01; assay: as above
# [14] = target: HLA-A*23:01; assay: as above
# [15] = target: HLA-A*02:11; assay: as above
# [16] = target: HLA-B*51:01; assay: as above
# [17] = target: HLA-A*02:16; assay: as above
# [18] = target: HLA-B*57:01; assay: as above
# [19] = target: HLA-B*18:01; assay: as above
# [20] = target: HLA-B*15:17; assay: as above
# [21] = target: HLA-A*02:01; assay: as above
# [22] = target: HLA-A*02:12; assay: as above
# [23] = target: HLA-A*68:02; assay: as above
# [24] = target: HLA-A*02:03; assay: as above
# [25] = target: HLA-B*15:02; assay: IEDB peptide-MHC binding, purified MHC/competitive/fluorescence; filed as Kd, often an IC50 or EC50 that approximates it; ≥ and ≤ were set here for values at or beyond the usual limits of such assays; conditions: source organism: Shigella boydii CDC 3083-94
# [26] = target: HLA-C*12:03; assay: IEDB peptide-MHC binding, purified MHC/direct/fluorescence; filed as Kd, often an IC50 or EC50 that approximates it; ≥ and ≤ were set here for values at or beyond the usual limits of such assays
# [27] = target: HLA-B*39:01; assay: IEDB peptide-MHC binding, purified MHC/competitive/fluorescence; filed as Kd, often an IC50 or EC50 that approximates it; ≥ and ≤ were set here for values at or beyond the usual limits of such assays; conditions: source organism: Orthohantavirus tulaense
# [28] = target: HLA-B*27:03; assay: as above; conditions: source organism: Orthohantavirus tulaense
# [29] = target: HLA-A*26:01; assay: as above; conditions: source organism: Orthohantavirus tulaense
# [30] = target: HLA-A*69:01; assay: as above; conditions: source organism: Orthohantavirus tulaense
# [31] = target: HLA-B*51:01; assay: as above; conditions: source organism: Orthohantavirus tulaense
# [32] = target: HLA-B*40:01; assay: IEDB peptide-MHC binding, purified MHC/direct/fluorescence; filed as Kd, often an IC50 or EC50 that approximates it; ≥ and ≤ were set here for values at or beyond the usual limits of such assays
# [33] = target: HLA-B*08:01; assay: as above
# [34] = target: HLA-B*27:05; assay: as above
# [35] = target: HLA-B*48:01; assay: as above; conditions: source organism: Orthohantavirus negraense
# [36] = target: HLA-A*01:01; assay: as above
# [37] = target: HLA-C*08:02; assay: as above; conditions: source organism: human gammaherpesvirus 4
# [38] = target: HLA-C*05:01; assay: as above; conditions: source organism: human gammaherpesvirus 4
# [39] = target: HLA-A*02:50; assay: IEDB peptide-MHC binding, purified MHC/competitive/fluorescence; filed as Kd, often an IC50 or EC50 that approximates it; ≥ and ≤ were set here for values at or beyond the usual limits of such assays; conditions: source organism: Cryptosporidium parvum
# [40] = target: HLA-A*31:01; assay: IEDB peptide-MHC binding, purified MHC/direct/fluorescence; filed as Kd, often an IC50 or EC50 that approximates it; ≥ and ≤ were set here for values at or beyond the usual limits of such assays; conditions: source organism: Cryptosporidium parvum
# [41] = target: HLA-A*11:01; assay: as above; conditions: source organism: Cryptosporidium parvum
# [42] = target: HLA-B*58:01; assay: as above; conditions: source organism: Cryptosporidium parvum
# [43] = target: HLA-B*44:02; assay: as above; conditions: source organism: Cryptosporidium parvum
# [44] = target: HLA-A*80:01; assay: as above
# [45] = source organism: Orthohantavirus hantanense
# [46] = source organism: Coxiella burnetii Q321
# [47] = source organism: Cryptosporidium parvum Iowa II
# [48] = source organism: Orthohantavirus negraense
# [49] = source organism: Orthohantavirus tulaense
# [50] = source organism: Toxoplasma gondii RH
# [51] = source organism: Cryptosporidium parvum
sequence,measurement,setting,value
LQYAIRSVF,Kd,[1]; [45],1.95 µM
same,Kd,[2],0.008 µM
same,Kd,[3]; [45],0.004 µM
DGAEGINPY,Kd,[1]; [46],≥ 20 µM
same,Kd,[4]; [46],0.267 µM
same,Kd,[5]; [46],8.58 µM
same,Kd,[6]; [46],≥ 20 µM
same,Kd,[7]; [46],≥ 20 µM
same,Kd,[8]; [46],≥ 20 µM
same,Kd,[9]; [46],≥ 20 µM
same,Kd,[10]; [46],≥ 20 µM
same,Kd,[11]; [46],≥ 20 µM
same,Kd,[12]; [46],≥ 20 µM
same,Kd,[13]; [46],≥ 20 µM
same,Kd,[14]; [46],≥ 20 µM
same,Kd,[15]; [46],≥ 20 µM
same,Kd,[16]; [46],≥ 20 µM
same,Kd,[17]; [46],≥ 20 µM
same,Kd,[18]; [46],≥ 20 µM
same,Kd,[19]; [46],≥ 20 µM
same,Kd,[20]; [46],≥ 20 µM
same,Kd,[21]; [46],≥ 20 µM
same,Kd,[3]; [46],11 µM
same,Kd,[22]; [46],≥ 20 µM
same,Kd,[23]; [46],≥ 20 µM
same,Kd,[24]; [46],≥ 20 µM
LPWFLDTTI,Kd,[1]; [47],≥ 20 µM
same,Kd,[6]; [47],≥ 20 µM
same,Kd,[7]; [47],≥ 20 µM
same,Kd,[9]; [47],≥ 20 µM
same,Kd,[10]; [47],≥ 20 µM
same,Kd,[13]; [47],≥ 20 µM
same,Kd,[16]; [47],0.034 µM
same,Kd,[17]; [47],≥ 20 µM
same,Kd,[18]; [47],≥ 20 µM
same,Kd,[19]; [47],≥ 20 µM
same,Kd,[21]; [47],≥ 20 µM
same,Kd,[3]; [47],≥ 20 µM
same,Kd,[22]; [47],≥ 20 µM
same,Kd,[24]; [47],≥ 20 µM
FMAAFYRVM,Kd,[25],0.0183 µM
same,Kd,[26]; source organism: Shigella boydii CDC 3083-94,≤ 0.001 µM
MSRKLHRYI,Kd,[27],≥ 20 µM
same,Kd,[28],≥ 20 µM
same,Kd,[29],≥ 20 µM
same,Kd,[30],≥ 20 µM
same,Kd,[31],≥ 20 µM
same,Kd,[1]; [48],≥ 20 µM
same,Kd,[5]; [48],≥ 20 µM
same,Kd,[32]; [48],≥ 20 µM
same,Kd,[8]; [49],≥ 20 µM
same,Kd,[33]; [48],4.71 µM
same,Kd,[12]; [48],≥ 20 µM
same,Kd,[34]; [48],≥ 20 µM
same,Kd,[26]; [49],0.441 µM
same,Kd,[13]; [49],≥ 20 µM
same,Kd,[35],≥ 20 µM
same,Kd,[14]; [49],≥ 20 µM
same,Kd,[15]; [49],≥ 20 µM
same,Kd,[36]; [48],≥ 20 µM
same,Kd,[19]; [48],≥ 20 µM
same,Kd,[21]; [48],≥ 20 µM
same,Kd,[3]; [48],≥ 20 µM
same,Kd,[22]; [49],≥ 20 µM
same,Kd,[23]; [49],≥ 20 µM
LTMNLVSDI,Kd,[1]; [50],≥ 20 µM
same,Kd,[6]; [50],≥ 20 µM
same,Kd,[8]; [50],≥ 20 µM
same,Kd,[9]; [50],≥ 20 µM
same,Kd,[10]; [50],≥ 20 µM
same,Kd,[13]; [50],≥ 20 µM
same,Kd,[18]; [50],≥ 20 µM
same,Kd,[19]; [50],≥ 20 µM
same,Kd,[20]; [50],0.003 µM
same,Kd,[3]; [50],≥ 20 µM
YAAPQLFPV,Kd,[37],0.069 µM
same,Kd,[26]; source organism: human gammaherpesvirus 4,0.004 µM
same,Kd,[38],0.065 µM
WLPWIPQLI,Kd,[39],0.0046 µM
same,Kd,[4]; [51],16 µM
same,Kd,[40],≥ 20 µM
same,Kd,[32]; [51],≥ 20 µM
same,Kd,[8]; [51],3.44 µM
same,Kd,[10]; [51],≥ 20 µM
same,Kd,[33]; [51],≥ 20 µM
same,Kd,[11]; [51],0.415 µM
same,Kd,[34]; [51],≥ 20 µM
same,Kd,[13]; [51],≥ 20 µM
same,Kd,[41],≥ 20 µM
same,Kd,[42],≥ 20 µM
same,Kd,[36]; [51],≥ 20 µM
same,Kd,[21]; [51],1.24 µM
same,Kd,[3]; [51],≥ 5 µM
same,Kd,[43],≥ 20 µM
MTGVMRGNY,Kd,[44]; source organism: Yellow fever virus strain Ghana/Asibi/1927,0.38 µM
HSEEGSRAY,Kd,[44]; source organism: Yellow fever virus,≥ 20 µM
